# Experimental data taken from the Human Domainome abundance scans (Beltran et al. 2025).
# ± gives the uncertainty stated by the source.
# B1: Tripartite motif-containing protein 44, residues 174 to 218; numbered along this chain, Q96DX7 (parent)
# chain: VAKRKCPDHGLDLSTYCQEDRQLICVLCPVIGAHQGHQLSTLDEA
# Variants of: B1
# Assay: abundance fitness (aPCA) (normalised: wild type 0, dead -1); higher = more abundant; growth selection in yeast, the domain comes from the species named
# Details: Homo sapiens
row,Variant,abundance fitness
1,VAKRKCPDHGLDLSTICQEDRQLICVLCPVIGAHQGHQLSTLDEA,0.127 ± 0.1
2,VAKRKCPDHGLDLSTSCQEDRQLICVLCPVIGAHQGHQLSTLDEA,-0.16 ± 0.031
3,VAKRKCPDHGLDLSTGCQEDRQLICVLCPVIGAHQGHQLSTLDEA,-0.373 ± 0.027
4,VAKRKCPDHGLDLSTLCQEDRQLICVLCPVIGAHQGHQLSTLDEA,-0.054 ± 0.031
5,VAKRKCPDHGLDLSTFCQEDRQLICVLCPVIGAHQGHQLSTLDEA,-0.069 ± 0.043
6,VAKRKCPDHGLDLSTECQEDRQLICVLCPVIGAHQGHQLSTLDEA,-0.033 ± 0.031
7,VAKRKCPDHGLDLSTDCQEDRQLICVLCPVIGAHQGHQLSTLDEA,-0.276 ± 0.037
8,VAKRKCPDHGLDLSTKCQEDRQLICVLCPVIGAHQGHQLSTLDEA,-0.059 ± 0.037
9,VAKRKCPDHGLDLSTACQEDRQLICVLCPVIGAHQGHQLSTLDEA,-0.266 ± 0.028
10,VAKRKCPDHGLDLSTTCQEDRQLICVLCPVIGAHQGHQLSTLDEA,0.029 ± 0.036
11,VAKRKCPDHGLDLSTPCQEDRQLICVLCPVIGAHQGHQLSTLDEA,-0.379 ± 0.038
12,VAKRKCPDHGLDLSTMCQEDRQLICVLCPVIGAHQGHQLSTLDEA,-0.011 ± 0.031
13,VAKRKCPDHGLDLSTNCQEDRQLICVLCPVIGAHQGHQLSTLDEA,-0.167 ± 0.049
14,VAKRKCPDHGLDLSTRCQEDRQLICVLCPVIGAHQGHQLSTLDEA,-0.043 ± 0.028
15,VAKRKCPDHGLDLSTWCQEDRQLICVLCPVIGAHQGHQLSTLDEA,-0.039 ± 0.03
16,VAKRKCPDHGLDLSTCCQEDRQLICVLCPVIGAHQGHQLSTLDEA,-0.132 ± 0.043
17,VAKRKCPDHGLDLSTYCQDDRQLICVLCPVIGAHQGHQLSTLDEA,0.045 ± 0.039
18,VAKRKCPDHGLDLSTYCQFDRQLICVLCPVIGAHQGHQLSTLDEA,-0.097 ± 0.05
19,VAKRKCPDHGLDLSTYCQCDRQLICVLCPVIGAHQGHQLSTLDEA,-0.063 ± 0.034

row,Variant,abundance fitness
1,VAKRKCPDHGLDLSTYCQADRQLICVLCPVIGAHQGHQLSTLDEA,-0.045 ± 0.027
2,VAKRKCPDHGLDLSTYCQGDRQLICVLCPVIGAHQGHQLSTLDEA,-0.093 ± 0.025
3,VAKRKCPDHGLDLSTYKQEDRQLICVLCPVIGAHQGHQLSTLDEA,-0.657 ± 0.052
4,VAKRKCPDHGLDLSTYWQEDRQLICVLCPVIGAHQGHQLSTLDEA,-0.931 ± 0.045
5,VAKRKCPDHGLDLSTYSQEDRQLICVLCPVIGAHQGHQLSTLDEA,-0.562 ± 0.038
6,VAKRKCPDHGLDLSTYQQEDRQLICVLCPVIGAHQGHQLSTLDEA,-0.633 ± 0.045
7,VAKRKCPDHGLDLSTYHQEDRQLICVLCPVIGAHQGHQLSTLDEA,-0.818 ± 0.098
8,VAKRKCPDHGLDLSTYRQEDRQLICVLCPVIGAHQGHQLSTLDEA,-0.484 ± 0.029
9,VAKRKCPDHGLDLSTYYQEDRQLICVLCPVIGAHQGHQLSTLDEA,-0.767 ± 0.094
10,VAKRKCPDHGLDLSTYMQEDRQLICVLCPVIGAHQGHQLSTLDEA,-0.779 ± 0.067
11,VAKRKCPDHGLDLSTYDQEDRQLICVLCPVIGAHQGHQLSTLDEA,-0.631 ± 0.064
12,VAKRKCPDHGLDLSTYIQEDRQLICVLCPVIGAHQGHQLSTLDEA,-0.759 ± 0.091
13,VAKRKCPDHGLDLSTYAQEDRQLICVLCPVIGAHQGHQLSTLDEA,-0.641 ± 0.031
14,VAKRKCPDHGLDLSTYPQEDRQLICVLCPVIGAHQGHQLSTLDEA,-0.751 ± 0.056
15,VAKRKCPDHGLDLSTYNQEDRQLICVLCPVIGAHQGHQLSTLDEA,-0.701 ± 0.15
16,VAKRKCPDHGLDLSTYEQEDRQLICVLCPVIGAHQGHQLSTLDEA,-0.546 ± 0.035
17,VAKRKCPDHGLDLSTYLQEDRQLICVLCPVIGAHQGHQLSTLDEA,-0.982 ± 0.059
18,VAKRKCPDHGLDLSTYFQEDRQLICVLCPVIGAHQGHQLSTLDEA,-0.334 ± 0.16
19,VAKRKCPDHGLDLSTYGQEDRQLICVLCPVIGAHQGHQLSTLDEA,-0.557 ± 0.027

row,Variant,abundance fitness
1,VAKRKCPDHGLDLSTYVQEDRQLICVLCPVIGAHQGHQLSTLDEA,-0.753 ± 0.036
2,VAKRKCPDHGLDLSTYTQEDRQLICVLCPVIGAHQGHQLSTLDEA,-0.705 ± 0.047
3,VAKRKCPDHGLDESTYCQEDRQLICVLCPVIGAHQGHQLSTLDEA,-0.123 ± 0.033
4,VAKRKCPDHGLDCSTYCQEDRQLICVLCPVIGAHQGHQLSTLDEA,-0.034 ± 0.045
5,VAKRKCPDHGLDVSTYCQEDRQLICVLCPVIGAHQGHQLSTLDEA,-0.082 ± 0.028
6,VAKRKCPDHGLDGSTYCQEDRQLICVLCPVIGAHQGHQLSTLDEA,-0.282 ± 0.027
7,VAKRKCPDHGLDFSTYCQEDRQLICVLCPVIGAHQGHQLSTLDEA,-0.186 ± 0.054
8,VAKRKCPDHGLDWSTYCQEDRQLICVLCPVIGAHQGHQLSTLDEA,-0.175 ± 0.028
9,VAKRKCPDHGLDKSTYCQEDRQLICVLCPVIGAHQGHQLSTLDEA,-0.204 ± 0.039
10,VAKRKCPDHGLDNSTYCQEDRQLICVLCPVIGAHQGHQLSTLDEA,-0.296 ± 0.082
11,VAKRKCPDHGLDHSTYCQEDRQLICVLCPVIGAHQGHQLSTLDEA,-0.339 ± 0.056
12,VAKRKCPDHGLDYSTYCQEDRQLICVLCPVIGAHQGHQLSTLDEA,-0.147 ± 0.053
13,VAKRKCPDHGLDSSTYCQEDRQLICVLCPVIGAHQGHQLSTLDEA,-0.166 ± 0.03
14,VAKRKCPDHGLDRSTYCQEDRQLICVLCPVIGAHQGHQLSTLDEA,-0.1 ± 0.027
15,VAKRKCPDHGLDTSTYCQEDRQLICVLCPVIGAHQGHQLSTLDEA,-0.079 ± 0.032
16,VAKRKCPDHGLDMSTYCQEDRQLICVLCPVIGAHQGHQLSTLDEA,-0.031 ± 0.033
17,VAKRKCPDHGLDISTYCQEDRQLICVLCPVIGAHQGHQLSTLDEA,-0.154 ± 0.13
18,VAKRKCPDHGLDQSTYCQEDRQLICVLCPVIGAHQGHQLSTLDEA,-0.009 ± 0.039
19,VAKRKCPDHGLDPSTYCQEDRQLICVLCPVIGAHQGHQLSTLDEA,-0.276 ± 0.035
